Test: yeast display, Sf9 membrane polyspecificity reagent, FACS + sequencing; frameworks hold sequencing errors
In short: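 Galactose induction of a Saccharomyces cerevisiae BJ5465 synthetic nanobody display library ran 36–48 hours. The cells were then stained for 1 hour at 4 °C with 10% biotinylated, detergent-solubilized Sf9 membrane reagent, pulled down on streptavidin microbeads and FACS-sorted into low and high (top ~1%) gates on expression and reagent-binding fluorescence. Labels for polyreactivity follow the gate of origin.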

| Sequence | polyreactivity (PSR sort gate) |
| --- | --- |
| QVQLVESGGGLVQAGGSLRLSCAASGRIFSRYTMGWYRQAPGKERELVAAISYRGGSTYYADSVKGRFTISRDNAKNTVYLQMNSLKPEDTAVYYCAARVQAIYRYDYWGQGTQVTVSS | high polyreactivity |
| QVQLVESGGGLVQAGGSLRLSCAASGRIFYSYAMGWYRQAPGKERELVAAISFSVGSTYYADSVKGRFTISRDNAKYTVYLQMNSLKPEDTAVYYCAASLGFPGYEYWGQGTQVTVSS | low polyreactivity |
| QVQLVESGGGLVQAGGSLRLSCAASGFTFGYNAMGWYRQAPGKERELVAAITSGGSTNYADSVKGRFTISRDNAKNTVYLQMNSLKPEDTAVYYCAVDPVRGRDYSWMDYWGQGTQVTVSS | low polyreactivity |
| QVQLVESGGGLVQAGGILSLSCAASGRIFVYYMGWYRQAPGKESELVAAISFGGGSTYYADSVKGRFTISRDNAKNTVYLQMNSLKPEDTAVYYCNADGDDLDWNYYLVQYDSWGQGTQVTVSS | low polyreactivity |
| QVQLVESGGGLVQAGGSLRLSCAASGRTFINYAKGWYRQAPGKERELVAAITTGGGGTYYADSVKGRFTISRDNAKNTVYLQMNSLKPEDTAVYYCAAEGTGYWGIVGYYYWGQGTQVTVSS | low polyreactivity |
| QVQLVESGGGLAQAGGSLRLTCAASGSTFQIYAMGWYRPAPGKERELVAAITSSSSTNYADSVKGRFTISRDNAKNTVYLQMNRLKPEDTAVYYCAADVSWRSNWYDYWGLGTQVTVSS | low polyreactivity |
| QVQLVESGGGLVQAGGSLRLSCAASGRTYRFNAMGWYRQAPGKERELVAAISKSGGSTYYADSVKGRFTISRDNAKNTVYLQMNSLKPEDTAVYYCAAQTYLYEYKYWGQGTQVTVSS | high polyreactivity |
| QVQLVESGGGLVQAGGSLRLSCAASGRILYWYTMGWYRQAPGKERELVAAITDSVGRTYYADSVKGRFTISRDNAKNTVYLQMNSLKPEDTAVYYCNADPYAQQPYSYYYGYDYWGQGTQVTVSS | low polyreactivity |
| QVQLVESGGGLVQAGGSLRLSCSASGSIFSANVMGWYRQAPGKDRELVAAIRRGGTTYYADSVKGRFTISRDNAKNTVYLQMNSLKPEDNAVYYCATDGIFGSYLRFEVAYDYWGQGTQVTVSS | low polyreactivity |
| QVQLVESGGGLVQAGGSLRLSCAASGSTFRAYAMGWYRQAPGKERELVAAISSGGSTYYADSVKGRFTISRDNAKITVYLQMNCLKPEDTAVYHCAKGWYYVSPYGYRKGVYYWGQGTKVTVSS | high polyreactivity |
| QVQLVESGGGLVQAGGSLRLSCAAYGSTFTYYAMGWYRQAPGKERELVAAISSSGGSTYYADSVKGRFTISRDNAKNTVYFQMNSLKPEDTAVYYCAARRKFPYRHDYWGQGTQVTVSS | high polyreactivity |
| QVQLVESGGGLVQAGGSLRLSCAASGRTFSTNAMGLYRQAPGKERELVAAISASGGSTYYADSVKGRFTISRDNAKTTVYLQMNSLKPEDTAVYYCAAYPGQWRTGYDYWGQGTQVTVSS | high polyreactivity |
| QVQLVESGGGLVQAGGSLRLSCAASGRILSEYPMGWYRQARGKERELVAAITISDGSTYYADSVKGRFTISRDNAKNTVYLQMNSVNPDDTAVYYCAADSYDYNPAYLFCYKYYYWGQGSQVTVSS | low polyreactivity |
| QVQLVESGGGLVQAGGSLRLSCAASGIIFRRYAMGWYRQAPGKEREFVAAIRYTGGGTYYADSVKGRFTISRDNAKNTVYFQMNSLKPEDTAVYYCAASPWSRGSRWRPFDYWGQGTQVTVSS | high polyreactivity |
| QVQLVESGGGLVQAGGSLRLSCAASGLTFGYYVMGWYRQAPGKERELVAAISFRGVSTYYADSVKGRFTISRDNAKKTVDLQMNSLKPEDTAVNYCARRYTSKGGYDYWGQGTQVTVSS | high polyreactivity |
| QVQLVESVGGLVQAGGSLRLSCPASGINFWNYAMGRYRQAPGKERELVAVISRGGSTYYADSVKGRFTISRDNAKNTVYLQMNSLKPEDNAVYYCAADSVVWEMEYWGQGTLVTVSS | high polyreactivity |
| QVQLVESGVCLVQAGGSLRLICAASGNTFYRYAMGWYRQAPGKERELVAAITGRGGSTYYADSVKGRFTISRDNAKNTVYLQMNSQKPEDTAVYYCAAESYGYGNDYWGQGTQVTVSS | low polyreactivity |
| QVQLVESGGGLVQAGGSLRVSCAASGYIFYGNTMGWYRQAPGKEWELVAAISYDGGSTYYADSVKGRFTISRDNAKNTVYLQMNSLKPEDTAVYYCAADTFSFRWSDYWGQGTQVTVSS | low polyreactivity |
| QVQLVESGGGLVQAGGSLRLSCAASGRTFWNYAMGWYRQAPGKERDLVAVIRFSDGSTYYAYSVKGRFTISRDNAKNTVYLHMNSLKPEDTAVYYCAAKGPRRWGSGFDYWGQGTQVTVSS | low polyreactivity |
| QVQLVESGGGLVQAGGSLRLSCAASGRIFSSNAMGWYRQAPGKERELVASINRGDRTYYADSVKGRFTISRDNAKNTVYLQMNSLKPEDTAVYYCAAARTYGKKYGYWGQGTQVTVSS | high polyreactivity |
| QVQLVESGGGLVQAGGSLRLSCAASGSIFVTNAMGWYRQAPGKERELVAAINQGGGSTYYADSVKGRFTISRDNAKNTVYLQMNSLKPEDTAVYYCATDAPYFVPFSTNGEFGDEYWGQGTQVTVSS | low polyreactivity |

| Sequence | polyreactivity (PSR sort gate) |
| --- | --- |
| QVQLVESGGGLDHAGGSLRLSCAASGFIFTPNAMGMYRQAPAKEREWVAAITSGGVTYYADSVKGRFTISRDNAKNTVYIQMNSLKPEGTAVYYCKKNHTGTVRDSIYGYWGQGNQVTVSS | high polyreactivity |
| QVQLVESGGGLVQAGGSLRLSCAASGRIFSLNAMGWYRQAPGKERELVAGIRKRGGSTYYADSVKGRFTISRDNAKNTVYLQMNSLKPEDTAVYYCAAQPALTYRFYYWGQGTQVTVSS | high polyreactivity |
| QDQLVESGGGLVQAGGSLRLSCAASGSIFVSYTMGWYRQAPGKERELVAAITRSGGSTYYADSVKGRFTISRDNAKNTVYLQLNSLKPEDTAVYYCNATPANKYYRSTRGYAYNYWGQGTQVTVSS | low polyreactivity |
| QVQLVESGGGLVQAGGSLRLSCAASGRTFKAYAMGWYRQAAGKEREFVPAITKRGGSTYYADSVKGRFTISRDNAKNTVYLQMNSLKPEDTAVYYCAVGLGRYTHTSVPIPSYDYWGQGTQVTVSS | high polyreactivity |
| QVQLAESGGGLVQAGGSLRLSCAASGRTFNLYAMGWYRQAPGKERELVASISSGGSTYYADSVKGRFTISRDNAKNTVYLQMNSLIPEDTAVYYCAARLAYGPRPMPSYEYYYWGQGTQVTVSS | low polyreactivity |
| QVQLVESGGGLVQAGGSLRISCAASGFTFPSNAMGWYRQAPGKERELVAAITGGGRTYYADSVKGRFTISRDNAKNTVFFQMNSLKPEDTAVYYCNRPTRVHLTHYDYCGQGTQVTVSS | high polyreactivity |
| QVQLVESGGGLVQAGGSLRLSCAASGFILPYYTMGWYRQAPGKERELVAAITYSGASTFYADSVKGRFTISRDNAKNTVYLQMNSLKPEDTAVYYCAKEWSGWYESPLDDGDYDYWGQGTQVTVSS | low polyreactivity |
| QVQLVESGGGLVQPGGSLRLSCAASGFIFSYYVMGWYRQAPGKERELVAAITTSGDSTYYADSVKGRFTISRDNAKNSVYLQMNSLKPEDTAVYYCNTVYRYRYYWGQGTHVTVSS | high polyreactivity |
| QVQLVESGGVLVQAGGRLRLSCAASVFGRYAMGWYRQAPGKEREMVARISSSCGSTHYADSVKGRFTISRDNAKNTVYLEMNSLKPEDTAVYYCAARSYDTYWWYGYWGQGTQVTVSS | high polyreactivity |
| QVQLVESGGGLVQAGGSLRFSCAASGSICGGYAMGWYRQAPGKERELVASITKSGDSTYADSVKGRFTISRDNAKNTVYLQMNSLKPEDTAVYYSAADSTFGNFDYWGQGTQVTVSS | low polyreactivity |
| QVQLAESGGGLVQAGGSLRLSCAASGRIFSGYAMGWSRQAPGKERELVAAITSVGSTNYADSVKGRFTISRDNAKNTVYLQMNSLKPEDTAVYYCAAKFVRPYRMYYWGQGTQVTVSS | high polyreactivity |
| QVQLVESGGGLVQAGGRLRLSCAASGSTFGTNDMGWYRQAPGKEREFVASIDWSGDSTNYADSVKGRFTISRDNAKNTVYLQMNSLKPEDTADYYCAARVFPQIYYTSYDYWGQGTQVTVSS | high polyreactivity |
| QVQLVESGGGLVQAGGSLRLSCAASGSIFEFNTMGWYRQAPGKERELVAAISSSGGRTYYADSVKGRFTISRDNAKNTVYLQMNSLKPEDTAVYYCNAVSYYGARYDYWGQGTQVTVSS | high polyreactivity |
| QVKLVESGGGLVQAGGSLRLSCGASGSTFGAYAMGWYRQAPGKERELVAVINSDGSTNYADSVKGRFTISRDNAKNTVYLQMNSMKPEDTAVYYCAKERTSRGGVPRMNYWGQGTQVTVSS | low polyreactivity |
| QVQLVDSGGGLVQAGGSLRLSCDASGLIFRYYTMGWYRQAPGKERELVATITKSGSSTYYADSVKGRFTISRDNAKNTVYLQMNSLKPEDTAVYYCAARAYPSSPRGVYAYYYWGQGTQVTVSS | high polyreactivity |
| QVQLVESGGGLVQAGGSLRLSCAASGGIFRGYAMGWYRQAPGKERELVAAITKRGGRTYYADSVKGRFTISRDNAKNTVYLQMNSLKPEDTAVYYCAADYYAAYHLPDQDYDYWGQGTQVTVSS | high polyreactivity |
| QVQLVESGGGLVQAAGSLRLSCAASGRTFRAYAMGWYRQAPGKERELVAAISNRGTRTYYADSVKGRFTISRDNAKNTVYLQMNSLKPEDTAVYYCAAGNRVNRFDYWGQGTQVTVSS | high polyreactivity |
| QVQLVESGGGLVQAGGSLRLSCAASRSTSPAYAMGWYRQAPGKERELVAVITGSGASTYYADSVKGRFTISRDNAKNTVYLQMNSLKPEDTAVYYCAADVGFGVVFYDYWGQGTQVTVSS | low polyreactivity |
| QVQLVESGGGLVQAGGSLRLSCAASGRTFSPYAMGWYRQAPGKERELVAAITSRGASTYYADSVKGRFTISRDNAKNTVYLQMNSLKPEDTAVYDCNSGRTYRRLGDYWGQGTQVTVSS | high polyreactivity |
| QVQLVESGGGIVQAGGSLPLSSAASGSTFPYNTMGWYIQAPGKERELVAAISQRGGSTYADSVKGRFTISRDNAKNTVYLEMNSLKPEDTAVYYCNKRNVYYSYPFDYDYWGQGTQVTVCS | low polyreactivity |
